Measurements taken from PMC10387098.
Where two headings read alike, the source gives them in different places.

Experiments:
[1] = molecular target: KRAS4b residues 1–169 with N-terminal cysteine, Alexa Fluor 647-labeled, GMP-PNP-bound (UniProt P01116); assay: MST; 10 μL of 5 nM Alexa Fluor 647-labeled GMP-PNP-bound KRAS mixed with 10 μL of serially diluted BRAF proteins (10 pM to 1 μM); 0.05% Tween-20; Monolith NT.115pico; three independent dilution series averaged
[2] = molecular target: CRAF RBD-CRD (Homo sapiens) (UniProt P04049); assay: SPR; settings: cited from earlier work
CRAF RBD (Homo sapiens) = CRAF RBD (Homo sapiens) (UniProt P04049); settings: cited from earlier work
[3] = molecular target: CRAF RBD-CRD (Homo sapiens) (UniProt P04049); settings: cited from earlier work
[4] = molecular target: CRAF RBD-CRD-C2 (Homo sapiens) (UniProt P04049); settings: cited from earlier work

Kd [1] [nM] | Substance | Kd [2] [nM] | Kd (CRAF RBD (Homo sapiens)) [nM] | Kd [3] [nM] | Kd [4] [nM]
106 | BRAF/14-3-3 (full length, active dimer) (from UniProt P15056 1-766) (complex) |  |  |  | 
127 | BRAF/MEK/14-3-3 (autoinhibited), as used for MST (from UniProt P15056 1-766; Q02750 1-393) (complex) |  |  |  | 
 | KRAS (from UniProt P01116) | 188 | 21.2 | 190 | 188
